Measurements taken from patent publication US20160193299A1, “MODIFIED NUCLEOSIDE, NUCLEOTIDE, AND NUCLEIC ACID COMPOSITIONS” (Moderna Therapeutics, Inc., priority 2011, published 2016).

What was measured:
[1] = system: Female BALB/C mice; test: In vivo detection of innate immune response: human G-CSF and mouse IFN-alpha in serum after I.M. injection; settings: for IFN-alpha expression: mouse IFN-alpha in serum, 200 ug/mouse mRNA (R848 75 ug)
Experimental: Blood is collected at 8 hours after dosing and using ELISA the protein levels of G-CSF and interferon-alpha (IFN-alpha) is determined by ELISA and are shown in Table 81.

[2] = Stability of modified RNA on storage (gel electrophoresis); format: physicochemical
Experimental: Stability experiments were conducted to obtain a better understanding of storage conditions to retain the integrity of modified RNA. […] After the mRNA had been stored for 0 hours, 2 hours, 6 hours, 24 hours, 48 hours, 5 days and 14 days, the mRNA was analyzed by gel electrophoresis using a Bio-Rad EXPERION′ system. The modified, unmodified and lipoplexed G-CSF mRNA was also stored in RNASTABLE® (Biomatrica, Inc. San Diego, Calif.) at 40° C. or water at −80° C. or 40° C. for 35 days before being analyzed by gel electrophoresis.
mRNA samples stored at 4° C., 25° C. and 37° C. were stored in 1× TE buffer or the formulation buffer (150 mM sodium chloride, 2 mM calcium chloride, 2 mM phosphate, 0.5 mM EDTA at a pH of 6.5). The mRNA stored at 4° C. was stable to at least 60 days in both the TE and formulation buffer. At 25° C. the mRNA in formulation buffer was stable out to 14 days and the TE buffer was stable out to at least 6 days. Storage of mRNA in the formulation buffer at 37° C. was stable to 6 days compared to the TE buffer which was stable only until 4 days.

[3] = system: neutrophil count; test: Example 41 intravenous administration of lipoplexed G-CSF mRNA, neutrophil count; format: in vivo; settings: mice IV, 10% lipoplex, 50 ug at days 0, 2, 4; day 5
Experimental: Neutrophils were measured at days 1, 5 and 8. Controls included non-specific mammalian RNA or the formulation buffer alone (F.Buffer). The mice were bled at days 1, 5 and 8 to determine the effect of mRNA-encoded human G-CSF to increase neutrophil count. The dosing regimen is shown in Table 64 as are the resulting neutrophil counts (thousands/uL; K/uL).

[4] = system: peripheral blood mononuclear cells (PBMC); test: Example 46A percent-modified G-CSF mRNA transfected in PBMC, G-CSF ELISA; format: cell-based, human
Experimental: (§1) 960 ng of G-CSF mRNA modified with 5-methylcytosine (5mC) and pseudouridine (pseudoU) or unmodified G-CSF mRNA was transfected with 0.8 uL of Lipofectamine 2000 into peripheral blood mononuclear cells (PBMC) from three normal blood donors (D1, D2, D3). […] The supernatant was harvested and run by ELISA 22 hours after transfection to determine the protein expression. The expression of IFN-alpha and TNF-alpha may be a secondary effect from the transfection of the G-CSF mRNA.

[5] = system: peripheral blood mononuclear cells (PBMC); test: G-CSF expression in PBMC transfected with partially modified G-CSF mRNA (ELISA); format: cell-based, human; settings: for G-CSF Expression: ELISA 22 hours after transfection
Experimental: as §1, with “480” for “960”, “0.4” for “0.8”, “D2, and” for “D2,”

[6] = system: HEK293; test: Example 46B percent-modified G-CSF mRNA transfected in HEK293, secreted G-CSF ELISA; format: cell-based, human; settings: HEK293, 250 ng mRNA with RNAiMAX, supernatant after 16 hours
Experimental: Human embryonic kidney epithelial (HEK293) cells were seeded on 96-well plates at a density of 30,000 cells per well in 100 ul cell culture medium. 250 ng of modified G-CSF mRNA (SEQ ID NO: 6; polyA tail of approximately 160 nucleotides not shown in sequence; 5′cap, Cap1) formulated with RNAiMAX™ (Invitrogen, Carlsbad, Calif.) was added to a well. The G-CSF was completely modified with 5mC and pseudoU (100% modification), not modified with 5mC and pseudoU (0% modification) or was partially modified with 5mC and pseudoU so the mRNA would contain 75% modification, 50% modification or 25% modification. Control samples (AK 5/2, mCherry (SEQ ID NO: 7; polyA tail of approximately 160 nucleotides not shown in sequence; 5′cap, Cap1; fully modified 5mC and pseudoU) and untreated) were also analyzed. […] The supernatants were harvested after 16 hours and the secreted G-CSF protein was analyzed by ELISA.

[7] = system: peripheral blood mononuclear cells (PBMC); test: Modified RNA transfected in PBMC: IFN-alpha and TNF-alpha at 6 and 18 hours (ELISA); format: cell-based, human
Experimental: (§2) 500 ng of G-CSF mRNA modified with 5-methylcytosine (5mC) and pseudouridine (pseudoU) or unmodified G-CSF mRNA was transfected with 0.4 uL of Lipofectamine 2000 into peripheral blood mononuclear cells (PBMC) from three normal blood donors (D1, D2, and D3). […] The supernatant was harvested 6 hours and 18 hours after transfection and run by ELISA to determine the protein expression. The expression of G-CSF, IFN-alpha, and TNF-alpha for Donor 1 is shown in Table 86, Donor 2 is shown in Table 87 and Donor 3 is shown in Table 88.

[8] = system: peripheral blood mononuclear cells (PBMC); test: Modified RNA transfected in PBMC: G-CSF expression at 6 and 18 hours (ELISA); format: cell-based, human
Experimental: as §2

[9] = system: peripheral blood mononuclear cells (PBMC); test: IFN-alpha and TNF-alpha expression in transfected PBMC (ELISA) and PC ratio; format: cell-based, human; settings: for IFN-alpha expression / TNF-alpha Expression: ELISA 22 hours after transfection
Experimental: The supernatant was harvested and run by ELISA 22 hours after transfection to determine the protein expression.

[10] = system: mice; test: In vivo cytokine expression study (serum IFN-alpha); settings: mouse serum; I.M. 200 ug mRNA; after 8 hours
Experimental: After 8 hours serum was collected from the mice and analyzed for interferon-alpha (IFN-alpha) expression.

[11] = system: Human primary foreskin fibroblasts (BJ fibroblasts); test: Innate immune response in BJ fibroblasts, repeat transfection: cytokine response; format: cell-based
[12] = system: female Sprague Dawley rats; test: In vivo delivery of modified RNA: G-CSF protein in rat serum (I.M.); settings: I.M. 400 ug in 100 ul, 5% sucrose, 8 hours after injection
Experimental: Protein production of modified mRNA was evaluated by delivering modified G-CSF mRNA or modified Factor IX mRNA to female Sprague Dawley rats (n=6). […] Blood was collected 8 hours after injection and the G-CSF protein level in serum was measured by ELISA.

[13] = PBMC, from averages of Tables 83 and 84

B1: Unmodified G-CSF mRNA: human G-CSF mRNA SEQ ID NO: 6 having no modifications (natural NTPs) (nucleic acid, listed as Homo sapiens)
chain: GGGAAAUAAGAGAGAAAAGAAGAGUAAGAAGAAAUAUAAGAGCCACCAUGGCCGGUCCCGCGACCCAAAGCCCCAUGAAACUUAUGGCCCUGCAGUUGCUGCUUUGGCACUCGGCCCUCUGGACAGUCCAAGAAGCGACUCCUCUCGGACCUGCCUCAUCGUUGCCGCAGUCAUUCCUUUUGAAGUGUCUGGAGCAGGUGCGAAAGAUUCAGGGCGAUGGAGCCGCACUCCAAGAGAAGCUCUGCGCGACAUACAAACUUUGCCAUCCCGAGGAGCUCGUACUGCUCGGGCACAGCUUGGGGAUUCCCUGGGCUCCUCUCUCGUCCUGUCCGUCGCAGGCUUUGCAGUUGGCAGGGUGCCUUUCCCAGCUCCACUCCGGUUUGUUCUUGUAUCAGGGACUGCUGCAAGCCCUUGAGGGAAUCUCGCCAGAAUUGGGCCCGACGCUGGACACGUUGCAGCUCGACGUGGCGGAUUUCGCAACAACCAUCUGGCAGCAGAUGGAGGAACUGGGGAUGGCACCCGCGCUGCAGCCCACGCAGGGGGCAAUGCCGGCCUUUGCGUCCGCGUUUCAGCGCAGGGCGGGUGGAGUCCUCGUAGCGAGCCACCUUCAAUCAUUUUUGGAAGUCUCGUACCGGGUGCUGAGACAUCUUGCGCAGCCGUGAAGCGCUGCCUUCUGCGGGGCUUGCCUUCUGGCCAUGCCCUUCUUCUCUCCCUUGCACCUGUACCUCUUGGUCUUUGAAUAAAGCCUGAGUAGGAAG
IFN-alpha expression ([1]; I.M., 8 hours after dosing): robust cytokine response
freeze/thaw cycles tolerated [2]: 12 cycles
increase in neutrophil count above control [3]: no pharmacologic effect

B2: 100% modification: G-CSF mRNA (SEQ ID NO: 6, Cap1) completely modified with 5mC and pseudoU (nucleic acid, listed as Homo sapiens)
chain: B1 chain
modifications: Cap1; fully 5-methylcytidine and pseudouridine modified
G-CSF Expression ([4]; PBMC donor D1, 960 ng mRNA): 270.3 pg/mL
G-CSF Expression ([4]; PBMC donor D2, 960 ng mRNA): 151.6 pg/mL
G-CSF Expression ([4]; PBMC donor D3, 960 ng mRNA): 162.2 pg/mL
G-CSF Expression ([5]; PBMC donor D1, 480 ng mRNA + Lipofectamine 2000): 1968.9 pg/mL
G-CSF Expression ([5]; PBMC donor D2, 480 ng mRNA): 2595.6 pg/mL
G-CSF Expression ([5]; PBMC donor D3, 480 ng mRNA): 2835.7 pg/mL
Average G-CSF ([5]; average of PBMC donors D1-D3): 2466 pg/mL
G-CSF Expression [6]: 118.4 ng/mL
IFN-alpha ([7]; PBMC Donor 1, 6 hours): 1 pg/mL
TNF-alpha ([7]; PBMC Donor 1, 6 hours): 0 pg/mL
IFN-alpha ([7]; PBMC Donor 1, 18 hours): 13 pg/mL
TNF-alpha ([7]; PBMC Donor 1, 18 hours): 0 pg/mL
IFN-alpha ([7]; PBMC Donor 2, 6 hours): 0 pg/mL
TNF-alpha ([7]; PBMC Donor 2, 6 hours): 0 pg/mL
IFN-alpha ([7]; PBMC Donor 2, 18 hours): 7 pg/mL
TNF-alpha ([7]; PBMC Donor 2, 18 hours): 11 pg/mL
IFN-alpha ([7]; PBMC Donor 3, 6 hours): 7 pg/mL
TNF-alpha ([7]; PBMC Donor 3, 6 hours): 11 pg/mL
IFN-alpha ([7]; PBMC Donor 3, 18 hours): 658 pg/mL
TNF-alpha ([7]; PBMC Donor 3, 18 hours): 11 pg/mL
G-CSF ([8]; PBMC Donor 1, 500 ng mRNA, 6 hours): 1815 pg/mL
G-CSF ([8]; PBMC Donor 1, 18 hours): 2224 pg/mL
G-CSF ([8]; PBMC Donor 2, 6 hours): 2184 pg/mL
G-CSF ([8]; PBMC Donor 2, 18 hours): 2432 pg/mL
G-CSF ([8]; PBMC Donor 3, 6 hours): 6086 pg/mL
G-CSF ([8]; PBMC Donor 3, 18 hours): 7549 pg/mL
ratio of protein/cytokine production versus natural G-CSF mRNA, IFN-alpha ([9]; PBMC): 100 fold
ratio of protein/cytokine production versus natural G-CSF mRNA, TNF-alpha ([9]; PBMC): 27 fold
IFN-alpha expression ([9]; PBMC donor D1): 336.5 pg/mL
TNF-alpha Expression ([9]; PBMC donor D1): 115.0 pg/mL
IFN-alpha expression ([9]; PBMC donor D2): 78.0 pg/mL
TNF-alpha Expression ([9]; PBMC donor D2): 15.0 pg/mL
IFN-alpha expression ([9]; PBMC donor D3): 46.4 pg/mL
TNF-alpha Expression ([9]; PBMC donor D3): 11.1 pg/mL
G-CSF/IFN-alpha (PC ratio) [9, 13]: 16
G-CSF/TNF-alpha (PC ratio) [9, 13]: 52
Average IFN-a ([9]; average of PBMC donors D1-D3): 153 pg/mL
Average TNF-a ([9]; average of PBMC donors D1-D3): 47 pg/mL

B3: G-CSF Gen 2: G-CSF mRNA SEQ ID NO: 6, Cap1, fully modified with 5-methylcytosine and N1-methylpseudouridine (nucleic acid, listed as Homo sapiens)
chain: B1 chain
modifications: Cap1, 5mC/N1-methylpseudouridine modified
IFN-alpha [10]: 0 pg/mL
PC Ratio ([1]; Protein:Cytokine ratio, G-CSF / IFN-alpha in mouse serum): 748
G-CSF protein ([1]; human G-CSF in mouse serum, I.M., 200 ug/mouse mRNA (R848 75 ug) in 5% sucrose, 8 hours after dosing): 748.1 pg/mL
IFN-alpha expression ([1]; I.M., 8 hours after dosing, listed as 5mc/N1pU modified mRNA): no detectable IFN-alpha
IFN-alpha expression ([1]; I.M., 8 hours after dosing, listed as GCSF mRNA5mc/N1pU): 0 pg/mL
IFN-beta ([11]; 250 ng transfected daily for 5 days, 6 hours): 0 pg/mL
IL-6 ([11]; daily transfection, 6 hours): 3337 pg/mL
IFN-beta ([11]; daily transfection, Day 1): 0 pg/mL
IL-6 ([11]; daily transfection, Day 1): 3733 pg/mL
IFN-beta ([11]; daily transfection, Day 2): 150 pg/mL
IL-6 ([11]; daily transfection, Day 2): 974 pg/mL
IFN-beta ([11]; daily transfection, Day 3): 213 pg/mL
IL-6 ([11]; daily transfection, Day 3): 4972 pg/mL
IFN-beta ([11]; daily transfection, Day 4): 1400 pg/mL
IL-6 ([11]; daily transfection, Day 4): 4122 pg/mL
IFN-beta ([11]; daily transfection, Day 5): 350 pg/mL
IL-6 ([11]; daily transfection, Day 5): 2906 pg/mL
G-CSF protein [12]: 64.72 pg/mL
